Measured values: the MegaScale stability set (Tsuboyama et al. 2023)

B1: r16_88_TrROS_Hall (parent)
chain: EVIELKIKFKTPEQREKLKEIAKKLNAEVVEEKDGEVIIRFKTPEQAERALKEAEKLGAEVEL

Variants of: B1
Test: folding stability dG (cDNA display proteolysis); higher = more stable
Settings: PBS, room temperature

| Variant | folding stability dG [kcal/mol] |
| --- | --- |
| T43P | 3.06 |
| T43S | 4.53 |
| T43G | 4.08 |
| T43F | 4.41 |
| E45Y | 4.73 |
| E45W | 4.37 |
| E45H | 4.08 |
| E45D | 4.22 |
| E45G | 4.38 |
| E45Q | 4.38 |
| Q46D | 4.37 |
| Q46V | 4.38 |
| Q46T | 4.25 |
| Q46A | 4.28 |
| Q46F | 4.43 |
| Q46L | 4.28 |
| E31D | 4.45 |
| E31H | 4.63 |
| E31I | 4.45 |
| E31V | 4.37 |
| E31K | 4.34 |
| E31R | 4.35 |
| E31M | 4.37 |
| E48A | 4.5 |

| Variant | folding stability dG [kcal/mol] |
| --- | --- |
| E48K | 4.67 |
| E48G | 4.28 |
| E48F | 4.72 |
| E48L | 4.29 |
| E48I | 4.17 |
| E55W | 4.58 |
| E55D | 4.27 |
| E55F | 4.59 |
| E32V | 4.54 |
| E32Q | 4.62 |
| E32M | 4.33 |
| E32I | 4.39 |
| E32G | 4.46 |
| E32N | 4.43 |
| V30R | 4.42 |
| V30N | 4.52 |
| V30W | 4.39 |
| V30M | 4.49 |
| V30Q | 4.3 |
| A47M | 4.39 |
| A47T | 4.34 |
| A47H | 4.42 |
| A47S | 4.39 |
| A47G | 4.28 |

| Variant | folding stability dG [kcal/mol] |
| --- | --- |
| A47E | 4.18 |
| A47F | 4.52 |
| A47K | 4.65 |
| I39T | 3.95 |
| I39L | 4.67 |
| I39P | 0.941 |
| I39M | 4.65 |
| I39S | 3.19 |
| I39F | 4.92 |
| I39N | 2.82 |
| K23A | 4.21 |
| K23S | 4.55 |
| K23P | 3.93 |
| K23C | 4.61 |
| K23H | 4.28 |
| K23V | 4.62 |
| K23L | 4.53 |
| E1F | 4.33 |
| E1G | 4.57 |
| E1L | 4.31 |
| E1D | 4.2 |
| E1H | 4.08 |
| K17T | 4.2 |
| K17F | 4.57 |

| Variant | folding stability dG [kcal/mol] |
| --- | --- |
| K17Y | 4.56 |
| L63I | 4.22 |
| L63K | 4.56 |
| L63E | 4.22 |
| L63V | 4.25 |
| K6L | 4.32 |
| K6V | 4.37 |
| K6F | 4.76 |
| K6D | 3.67 |
| K6E | 3.75 |
| I3C | 4.46 |
| I3Y | 4.7 |
| I3M | 4.63 |
| I3F | 4.97 |
| I3Q | 4.76 |
| I3N | 4.76 |
| L51V | 4.39 |
| L51D | 3.96 |
| L51P | 2.79 |
| L51T | 4.76 |
| L51R | 4.61 |
| E60Y | 4.21 |
| E60T | 4.4 |
| E60F | 4.07 |

| Variant | folding stability dG [kcal/mol] |
| --- | --- |
| E60V | 4.54 |
| E60Q | 4.2 |
| I7M | 4.39 |
| I7L | 4.64 |
| I7F | 4.53 |
| I7Y | 4.82 |
| K10C | 4.2 |
| K10Q | 4.34 |
| K10F | 4.18 |
| K10W | 4.3 |
| K10L | 4.29 |
| K10R | 4.47 |
| P12M | 4.53 |
| P12T | 4.57 |
| P12R | 4.73 |
| P12Y | 4.91 |
| P12D | 4.2 |
| A50V | 4.41 |
| A50L | 4.28 |
| A50N | 3.58 |
| A50P | 2.96 |
| A50W | 4.69 |
| A50G | 4.46 |
| A50K | 2.55 |

| Variant | folding stability dG [kcal/mol] |
| --- | --- |
| E53H | 4.17 |
| E53D | 4.34 |
| E53C | 4.4 |
| E53N | 3.87 |
| E53P | 3.08 |
| G35M | 4.26 |
| G35W | 4.46 |
| G35V | 4.35 |
| G35K | 4.24 |
| P44F | 4.54 |
| P44E | 4.1 |
| P44Q | 4.56 |
| P44G | 4.37 |
| P44R | 4.18 |
| P44S | 4.49 |
| A22W | 4.68 |
| A22N | 4.12 |
| A22D | 2.91 |
| A22V | 4.38 |
| K56E | 4.28 |
| K56T | 4.48 |
| K56I | 4.52 |
| K56G | 4.53 |
| K56W | 4.26 |

| Variant | folding stability dG [kcal/mol] |
| --- | --- |
| K56V | 4.45 |
| K56N | 4.44 |
| K56P | 4.5 |
| K56L | 4.5 |
| K8C | 4.15 |
| K8L | 4.31 |
| K8F | 4.53 |
| K8A | 4.09 |
| G58C | 4.28 |
| V37K | 3.31 |
| V37R | 3.03 |
| V37P | 2.49 |
| R49C | 4.42 |
| R49Y | 4.93 |
| R49I | 4.49 |
| E28C | 4.65 |
| E28Q | 4.51 |
| E28H | 4.43 |
| E28G | 4.33 |
| E28I | 4.45 |
| T11H | 4.42 |
| T11G | 4.26 |
| T11D | 4.03 |
